Assays:
[1] = target: T1, His-tagged human HER3 (human, UniProt P21860 20-643); assay: BLI (Octet QK384), antibody on anti-human IgG capture tips, His-tagged human HER3 in solution, global one-site fit
T1 construct: Antigen of the BLI experiments and of the HER2-Fc dimerisation ELISA; also called HER3 His; not shown: His tag
Procedure, shortened: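 Steps: capture of anti-HER3 IgG1 (25 nM) on anti-human IgG tips; association and dissociation of human HER3 at 25° C, 1000 rpm; reference subtraction for buffer; global one-site fitting, retaining R²>0.90.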

[2] = target: T2, FcgRIIA (H167) (human, UniProt P12318); assay: Bio-Layer Interferometry (determined as described in Example 7)
T2 construct: recombinant; also called CD32A; hFcγRIIa167H
T2 sequence (receptor, looked up): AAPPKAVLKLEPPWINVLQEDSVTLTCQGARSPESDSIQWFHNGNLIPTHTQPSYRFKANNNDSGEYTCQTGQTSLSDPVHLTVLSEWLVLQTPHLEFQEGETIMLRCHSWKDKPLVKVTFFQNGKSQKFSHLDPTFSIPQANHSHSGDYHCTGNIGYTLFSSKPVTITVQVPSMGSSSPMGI

[3] = target: T3, His-tagged FcγRIIIa (V158) (human, UniProt P08637 17-208); assay: as above
T3 construct: not shown: His tag

[4] = target: T4, FcRn (human, UniProt P55899); assay: as above
T4 construct: recombinant; also called human FcRn; gene FCGRT (so in the source)

[5] = target: T5, FcgRIIA (R167) (human, UniProt P12318); assay: as above
T5 construct: recombinant; also called CD32A; hFcγRIIa167R
T5 sequence (receptor, looked up): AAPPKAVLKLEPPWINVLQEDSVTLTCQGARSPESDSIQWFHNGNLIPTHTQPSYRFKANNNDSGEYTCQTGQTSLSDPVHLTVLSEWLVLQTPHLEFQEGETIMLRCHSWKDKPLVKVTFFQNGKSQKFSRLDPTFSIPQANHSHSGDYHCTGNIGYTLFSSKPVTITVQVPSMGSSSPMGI

[6] = target: T1, His-tagged human HER3; assay: plate ELISA dimerisation assay; HER2-Fc coated, constant HER3 His and NRG, antibody varied; blocked partner HER2-Fc
Experimental: Plate-based ELISA dimerisation assays were carried out according to standard protocols. Plates were coated with 1 μg/ml HER2-Fc protein. […] Plates were then washed and incubated for 1 hour with secondary anti-HIS HRP antibody. […] The absorbance was read at 450 nm.

[7] = target: T6, hCD16a (human, UniProt P08637 17-208, limits assumed); assay: BLI; after 15 days at 40 °C/80% RH
T6 construct: also called human CD16a

[8] = target: T7, human HER3 polypeptide (human, UniProt P21860 20-643); assay: BLI; after 15 days at 40 °C/80% RH
T7 construct: Recombinant antigen of the ELISAs; also called human HER3 (Sino Biological Inc.); human antigen HER3

[9] = target: T8, mouse HER3 (mouse, UniProt Q61526 20-641); assay: ELISA; plate coated with target polypeptide, antibody serially diluted, absorbance 450 nm
T8 construct: also called mouse homologue of HER3 (Sino Biological Inc.); M. musculus HER3
T8 sequence (Q61526 20-641 limits assumed): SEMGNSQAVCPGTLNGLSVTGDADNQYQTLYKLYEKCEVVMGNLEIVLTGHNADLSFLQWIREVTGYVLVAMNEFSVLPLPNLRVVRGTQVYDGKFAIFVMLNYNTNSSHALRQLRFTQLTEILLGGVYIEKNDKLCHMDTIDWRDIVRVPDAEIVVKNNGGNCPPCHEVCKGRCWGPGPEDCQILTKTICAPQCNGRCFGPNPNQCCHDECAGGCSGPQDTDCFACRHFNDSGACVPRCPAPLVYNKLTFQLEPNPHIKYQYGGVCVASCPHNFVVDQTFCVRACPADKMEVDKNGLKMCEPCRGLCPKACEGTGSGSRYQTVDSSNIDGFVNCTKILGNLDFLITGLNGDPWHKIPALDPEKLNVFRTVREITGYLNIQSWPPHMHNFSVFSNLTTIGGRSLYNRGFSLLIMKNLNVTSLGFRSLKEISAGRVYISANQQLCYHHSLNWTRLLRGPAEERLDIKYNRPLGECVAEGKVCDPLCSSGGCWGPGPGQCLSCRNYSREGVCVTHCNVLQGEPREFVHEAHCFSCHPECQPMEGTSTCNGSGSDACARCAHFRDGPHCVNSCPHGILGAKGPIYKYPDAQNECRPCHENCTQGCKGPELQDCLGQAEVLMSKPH
Experimental: (§1) ELISAs were carried out according to standard protocols. Plates were coated with 0.1 μg/ml of target polypeptide in phosphate-buffered saline (PBS) for 16 h at 4° C. After blocking for 1 h with 1% BSA in Tris buffer saline (TBS) at room temperature, the anti-HER3 antibody was serially diluted with the highest concentration being 10 μg/ml, and added to the plate. Post 1 h incubation at room temperature, plates were washed three times with TBS containing 0.05% Tween 20 (TBS-T) and were then incubated with a HRP-conjugated anti-His antibody (Life Technologies, Inc., USA) for 1 h at room temperature. After washing, plates were developed with colorimetric detection substrate 3,3′,5,5′-tetramethylbenzidine (Turbo-TMB; Pierce, USA) for 10 min. The reaction was stopped with 2M H₂SO₄, and OD was measured at 450 nm.

[10] = target: T9, cynomolgus macaque HER3 (cynomolgus macaque, UniProt G7PIG5 20-643); assay: as above
T9 construct: also called monkey homologue of HER3 (Sino Biological Inc.); HER3 cyno
T9 sequence (G7PIG5 entry or part of it): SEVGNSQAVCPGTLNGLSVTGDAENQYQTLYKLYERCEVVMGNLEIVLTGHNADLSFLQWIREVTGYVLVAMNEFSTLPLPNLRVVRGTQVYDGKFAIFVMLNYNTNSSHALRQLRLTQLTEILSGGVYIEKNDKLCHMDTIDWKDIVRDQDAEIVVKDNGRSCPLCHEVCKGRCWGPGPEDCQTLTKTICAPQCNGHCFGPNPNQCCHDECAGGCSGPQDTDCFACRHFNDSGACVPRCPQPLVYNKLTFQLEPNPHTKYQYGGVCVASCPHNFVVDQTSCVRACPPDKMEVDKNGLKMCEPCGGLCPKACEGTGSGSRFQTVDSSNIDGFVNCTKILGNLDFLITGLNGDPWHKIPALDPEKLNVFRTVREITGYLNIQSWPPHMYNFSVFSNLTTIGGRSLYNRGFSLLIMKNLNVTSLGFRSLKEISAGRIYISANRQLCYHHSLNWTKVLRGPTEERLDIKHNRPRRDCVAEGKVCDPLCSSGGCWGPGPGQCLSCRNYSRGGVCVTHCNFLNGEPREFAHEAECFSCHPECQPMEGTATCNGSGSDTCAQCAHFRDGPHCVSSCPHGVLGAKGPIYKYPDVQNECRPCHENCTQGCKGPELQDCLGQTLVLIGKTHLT
Experimental: as §1

[11] = target: T10, human HER3 expressed on cells (HEK293 HER3 O/E cells) (human, UniProt P21860 20-1342); assay: flow cytometry on HEK293T HER3 O/E cells, 10 ug antibody as printed, FITC-conjugated anti-Fc secondary
T10 construct: Also used here for HER3 on U2OS cells of the PathHunter kit and on cancer cell lines; also called HEK293 cells transfected with vector encoding human HER3; human HER3-expressing cells
Experimental: The cells were washed with buffer (PBS with 2 mM EDTA and 0.5% BSA) and resuspended in FITC-conjugated anti-FC antibody (Invitrogen, USA) at 10 μg/ml for 20 min at 4° C. Cells were washed again and resuspended in 200 μL of FACS flow buffer (PBS with 5 mM EDTA) for flow cytometric analysis using MACSQuant 10 (Miltenyi Biotec, Germany). Unstained WT and transfected HEK293 cells were included in the analysis as negative controls. After acquisition, all raw data were analyzed using Flowlogic software. Cells were gated using forward and side scatter profile percentage of positive cells was determined for native and overexpressing cell populations.

[12] = target: T7, human HER3 polypeptide; assay: ELISA, plate coated with human HER3, antibody titrated, absorbance 450 nm, x axis Log([Ab]) (ug/ml)

B1: 10D1F.FcA (anti-HER3 clone 10D1_c89 IgG1) (antibody)
heavy: not shown
light: DIQMTQSPSSVSASVGDRVTITCKASQIVGSNVAWYQQKPGKAPEPLIYSASYLYSGVPSRFSGSGSGTDFTLTISSLQPEDFATYYCQQYSSHPLTFGQGTKLEIKRTVAAPSVFIFPPSDEQLKSGTASVVCLLNNFYPREAKVQWKVDNALQSGNSQESVTEQDSKDSTYSLSSTLTLSKADYEKHKVYACEVTHQGLSSPVTKSFNRGEC
notes: also called 10D1F.A; HMBD-001
Kd [1]: 0.0726 nM
Kd [2]: 1800 nM
Kd [3]: 986 nM
Kd [4]: 47.6 nM
Kd [5]: 976 nM
IC50 [6]: 78.8 nM
Kd [7]: 265 nM
Kd [8]: < 0.001 nM
EC50 [9]: 0.0332 nM
EC50 [10]: 0.0258 nM
% Parent (HER3 positive) [11]: 73.3%
EC50 (read off the curve) [12]: ~2 ng/mL
